Data: article PMC5339904

Columns and labels:
[1] = biological target: GCN4 leucine zipper fused to the β-lactamase fragments N-BLa and C-BLa; assay: split reporter (BiFC, NanoBiT); split β-lactamase; soluble N-BLa and C-BLa fusions co-expressed in the E. coli periplasm; read-out: ampicillin LD50 in liquid media by optical density
GpA0 G83I = assay: BLaTM 1.2 (split β-lactamase complementation, ampicillin resistance); conditions: E. coli JM83, 133 μM arabinose, n = 3, read off a plot
[2] = biological target: glycophorin A transmembrane domain G83I mutant, frame GpA+1, in BLaTM hybrid proteins; assay: split reporter (BiFC, NanoBiT); BLaTM 1.2 (ompA signal) in E. coli JM83; 133 μM arabinose plus 0.3 mM IPTG; ampicillin LD50 given relative to wild-type GpA+1 (=100%); library pairs first selected on ampicillin, then measured one by one; labels are N-BLa/C-BLa
[3] = biological target: glycophorin A transmembrane domain G83I mutant, frame GpA+1, in BLaTM hybrid proteins; assay: BLaTM 1.1 (split β-lactamase complementation, ampicillin resistance); conditions: E. coli BL21; n = 4 separate transformations; parent: est. 160 µg/ml; read off a plot
[4] = biological target: glycophorin A transmembrane domain G83I mutant, frame GpA+1, in BLaTM hybrid proteins; assay: BLaTM 1.2 (split β-lactamase complementation, ampicillin resistance); conditions: E. coli JM83, 133 μM arabinose, n = 3, read off a plot
[5] = biological target: quiescin sulfhydryl oxidase 2 transmembrane domain S8A mutant, in BLaTM hybrid proteins; assay: BLaTM 1.1 (split β-lactamase complementation, ampicillin resistance); conditions: E. coli BL21; n = 4 separate transformations; parent: est. 80 µg/ml; read off a plot

GCN4 leucine zipper fused to the β-lactamase fragments N-BLa and C-BLa, sequence (P03069 whole entry, the tested form may be a part): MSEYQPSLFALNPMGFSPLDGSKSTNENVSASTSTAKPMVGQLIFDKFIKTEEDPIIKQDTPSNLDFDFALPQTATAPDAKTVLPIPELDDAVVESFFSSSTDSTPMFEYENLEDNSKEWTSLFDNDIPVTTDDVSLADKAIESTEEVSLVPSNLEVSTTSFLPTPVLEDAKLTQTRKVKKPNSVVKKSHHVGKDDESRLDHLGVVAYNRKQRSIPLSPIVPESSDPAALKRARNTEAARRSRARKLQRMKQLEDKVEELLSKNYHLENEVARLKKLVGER

GCN4 leucine zipper fused to the β-lactamase fragments N-BLa and C-BLa
fold rise of the ampicillin LD50 on co-expression of both fragments [1]: 40 fold

GpA0 wt G83I
other: LD50 c(Amp) (GpA0 G83I; 0.1 mM IPTG, parent: est. 230 µg/ml): 150 µg/mL | other: LD50 c(Amp) (GpA0 G83I; 0.2 mM IPTG, parent: est. 99 µg/ml): 73 µg/mL | other: LD50 c(Amp) (GpA0 G83I; 0.3 mM IPTG, parent: est. 80 µg/ml): 52 µg/mL | other: LD50 c(Amp) (GpA0 G83I; 0.4 mM IPTG, parent: est. 61 µg/ml): 38 µg/mL | other: LD50 c(Amp) (GpA0 G83I; 0.7 mM IPTG, parent: est. 30 µg/ml): 24 µg/mL

glycophorin A transmembrane domain G83I mutant, frame GpA+1, in BLaTM hybrid proteins (domain or fragment)
LD50 in % of GpA+1 wt (% (GpA+1 wt = 100%)) [2]: 29

glycophorin A transmembrane domain, wild type, frame GpA+1, in BLaTM hybrid proteins G83I
other: LD50 c(Amp) [3]: 16 µg/mL | other: LD50 c(Amp) ([4]; 0.1 mM IPTG): 120 µg/mL | other: LD50 c(Amp) ([4]; 0.2 mM IPTG): 70 µg/mL | other: LD50 c(Amp) ([4]; 0.3 mM IPTG, parent: est. 270 µg/ml): 65 µg/mL | other: LD50 c(Amp) ([4]; 0.4 mM IPTG, parent: est. 140 µg/ml): 43 µg/mL | other: LD50 c(Amp) ([4]; 0.5 mM IPTG, parent: est. 100 µg/ml): 32 µg/mL | other: LD50 c(Amp) ([4]; 0.7 mM IPTG, parent: est. 62 µg/ml): 27 µg/mL

quiescin sulfhydryl oxidase 2 transmembrane domain, wild type, in BLaTM hybrid proteins S8A
other: LD50 c(Amp) [5]: 38 µg/mL
